Reference: patent publication US20030203372A1, “Analysis method” (priority 2000, published 2003)

Columns and labels:
human macrophages = assay: Custom gene array, macrophages with no cytokines, IL-10 or LPS + IFN, in normoxia and hypoxia; format: cell-based; conditions: for mRNA EXPRESSION (experimental condition) #1: #1 no cytokines/normoxia; for mRNA EXPRESSION (experimental condition) #2: #2 no cytokines/hypoxia; for mRNA EXPRESSION (experimental condition) #3: #3 IL-10/normoxia; for mRNA EXPRESSION (experimental condition) #4: #4 IL-10/hypoxia; for mRNA EXPRESSION (experimental condition) #5: #5 LPS/IFN/normoxia; for mRNA EXPRESSION (experimental condition) #6: #6 LPS/IFN/hypoxia
Procedure, shortened: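 Cultured macrophages were left untreated or given IL-10 or LPS + IFN, each at 100 ng/ml final, for 6 hr under normoxia or hypoxia (0.1% oxygen). Six conditions in total.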

[1] = test system: human breast and ovary tumors; assay: Custom gene array, breast and ovary tumors versus normal adjacent tissue; conditions: for gene expression level on custom gene array, Breast nor H / gene expression level on custom gene array, Breast nor K / gene expression level on custom gene array, Ovary nor E / gene expression level on custom gene array, Ovary nor F / gene expression level on custom gene array, Ovary nor G: normal adjacent tissue; for gene expression level on custom gene array, Breast nor H / gene expression level on custom gene array, Breast tum H: patient H; for gene expression level on custom gene array, Breast nor K / gene expression level on custom gene array, Breast tum K: patient K; for gene expression level on custom gene array, Breast tum H / gene expression level on custom gene array, Breast tum K / gene expression level on custom gene array, Ovary tum E / gene expression level on custom gene array, Ovary tum F / gene expression level on custom gene array, Ovary tum G: tumor tissue; for gene expression level on custom gene array, Ovary nor E / gene expression level on custom gene array, Ovary tum E: patient E; for gene expression level on custom gene array, Ovary nor F / gene expression level on custom gene array, Ovary tum F: patient F; for gene expression level on custom gene array, Ovary nor G / gene expression level on custom gene array, Ovary tum G: patient G
Source text: A study has been performed to examine the expression of these genes in a selection of breast and ovary tumors, comparing expression with normal adjacent tissue from the same patient. There is expected to be a large degree of variation between different patients, and the study here contains only 5 patients with a range of diagnoses.
Patients are designated as Letters:
E: person. Diagnosis: ovarian adenocarcinoma. Normal ovarian tissue derived from an age-matched separate individual.
: person. Diagnosis: poorly differentiated adenocarcinoma. Normal ovarian tissue derived from the same individual.
G: person. Diagnosis: moderately-differentiated adenocarcinoma. Normal ovarian tissue derived from the same individual.
H: person. Diagnosis: invasive ductal carcinoma. Normnal breast tissue derived from the same individual.
K: person. Diagnosis: invasive ductal carcinoma. Normal breast tissue derived from the same individual.
Data normalisation was done per-chip to correct for differences in labelling and hybridization efficiency. Per-gene normalisation was done such that the expression values of each gene are relative to the median value of that gene throughout the series of samples. By comparing the expression values under normal (nor) and tumor (turn) for a single patient, differences in expression between the normal and malignant tissue of that patient can be inferred.

[2] = Table 15, referenced to the median value of that gene throughout all 6 conditions
[3] = Table 17, referenced to median of the gene over 6 conditions

B1: p1K8 (nucleic acid, listed as Homo Sapiens)
DNA: AGCACAGGACACAGCTGGGTTCTGAAGCTTCTGAGTTCTGCAGCCTCACCTCTGAGAAAACCTCTTTTCCACCAATACCATGAAGCTCTGCGTGACTGTCCTGTCTCTCCTCATGCTAGTAGCTGCCTTCTGCTCTCCAGCGCTCTCAGCACCAATGGGCTCAGACCCTCCCACCGCCTGCTGCTTTTCTTACACCGCGAGGAAGCTTCCTCGCAACTTTGTGGTAGATTACTATGAGACCAGCAGCCTCTGCTCCCAGCCAGCTGTGGTATTCCAAACCAAAAGAAGCAAGCAAGTCTGTGCTGATCCCAGTGAGACCTGGGTCCAGGAGTACGTGTATGACCTGGAACTGAACTGAGCTGCTCAGAGACAGGAAGTCTTCAGGGAAGGTCACCTGAGCCCGGATGCTTCTCCATGAGACACATCTCCTCCATACTCAGGACTCCTCTCCGCAGTTCCTGTCCCTTCTCTTAATTTAATCTTTTTTATGTGCCGTGTTATTGTATTAGGTGTCATTTCCATTATTTATATTAGTTTAGCCAAAGGATAAGTGTCCCCTATGGGGATGGTCCACTGTCACTGTTTCTCTGCTGTTGCAAATACATGGATAACACATTTGATTCTGTGTGTTTTCATAATAAAACTTTAAAATAAAATGCAGACAGTT
mRNA EXPRESSION (experimental condition) #1 (human macrophages; [2]): 0.82 | mRNA EXPRESSION (experimental condition) #2 (human macrophages; [2]): 0.40 | mRNA EXPRESSION (experimental condition) #3 (human macrophages; [2]): 1.15 | mRNA EXPRESSION (experimental condition) #4 (human macrophages; [2]): 0.38 | mRNA EXPRESSION (experimental condition) #5 (human macrophages; [2]): 91.4 | mRNA EXPRESSION (experimental condition) #6 (human macrophages; [2]): 68.4 | gene expression level on custom gene array, Breast nor H ([1]; Table 19): 1.94 | gene expression level on custom gene array, Breast nor K ([1]; Table 19): 1.75 | gene expression level on custom gene array, Breast tum H ([1]; Table 19): 0.68 | gene expression level on custom gene array, Breast tum K ([1]; Table 19): 1.62 | gene expression level on custom gene array, Ovary nor E ([1]; Table 19): 1.00 | gene expression level on custom gene array, Ovary nor F ([1]; Table 19): 2.48 | gene expression level on custom gene array, Ovary nor G ([1]; Table 19): 1.94 | gene expression level on custom gene array, Ovary tum E ([1]; Table 19): 0.56 | gene expression level on custom gene array, Ovary tum F ([1]; Table 19): 2.29 | gene expression level on custom gene array, Ovary tum G ([1]; Table 19): 0.54

B2: p1F17 (nucleic acid, listed as Homo Sapiens)
DNA: CAGCCTTATAAGCTGAGGGAGTGGAGAGGCCCGGGGCCAGGAAAGCAGAGACAGACAAAGCGTTAGGAGAAGAAGAGAGGCAGGGAAGACAAGCCAGGCACGATGGCCACCTTCCCACCAGCAACCAGCGCCCCCCAGCAGCCCCCAGGCCCGGAGGACGAGGACTCCAGCCTGGATGAATCTGACCTCTATAGCCTGGCCCATTCCTACCTCGGAGGTGGAGGCCGGAAAGGTCGCACCAAGAGAGAAGCTGCTGCCAACACCAACCGCCCCAGCCCTGGCGGGCACGAGAGGAAACTGGTGACCAAGCTGCAGAATTCAGAGAGGAAGAAGCGAGGGGCACGGCGCTGAGACAGAGCTGGAGATGAGGCCAGACCATGGACACTACACCCAGCAATAGAGACGGGACTGCGGAGGAAGGAGGACCCAGGACAGGATCCAGGCCGGCTTGCCACACCCCCCACCCCTAGGACTTATTCCCGCTGACTGAGTCTCTGAGGGGCTACCAGGAAAGCGCCTCCAACCCTAGCAAAAGTGCAAGATGGGGAGTGAGAGGCTGGGAATGGAGGGGCAGAGCCAGGAAGATCCCCCAGAAAAGAAAGCTACAGAAGAAACTGGGGCTCCTCCAGGGTGGCAGCAACAATAAATAGACACGCACGGCAGCCACAGCTTGGGTGTGTGTTCATCCTTGTTAAAAAAAAAAAAAAAAAAAAAAAAAA
mRNA EXPRESSION (experimental condition) #1 (human macrophages; [2]): 0.26 | mRNA EXPRESSION (experimental condition) #2 (human macrophages; [2]): 1.78 | mRNA EXPRESSION (experimental condition) #3 (human macrophages; [2]): 0.16 | mRNA EXPRESSION (experimental condition) #4 (human macrophages; [2]): 0.88 | mRNA EXPRESSION (experimental condition) #5 (human macrophages; [2]): 1.16 | mRNA EXPRESSION (experimental condition) #6 (human macrophages; [2]): 2.59 | gene expression level on custom gene array, Breast nor H ([1]; Table 18): 1.00 | gene expression level on custom gene array, Breast nor K ([1]; Table 18): 0.92 | gene expression level on custom gene array, Breast tum H ([1]; Table 18): 0.97 | gene expression level on custom gene array, Breast tum K ([1]; Table 18): 1.33 | gene expression level on custom gene array, Ovary nor E ([1]; Table 18): 1.18 | gene expression level on custom gene array, Ovary nor F ([1]; Table 18): 1.27 | gene expression level on custom gene array, Ovary nor G ([1]; Table 18): 0.55 | gene expression level on custom gene array, Ovary tum E ([1]; Table 18): 0.17 | gene expression level on custom gene array, Ovary tum F ([1]; Table 18): 1.47 | gene expression level on custom gene array, Ovary tum G ([1]; Table 18): 1.79 | gene expression level on custom gene array, Breast nor H ([1]; Table 19): 1.00 | gene expression level on custom gene array, Breast nor K ([1]; Table 19): 0.92 | gene expression level on custom gene array, Breast tum H ([1]; Table 19): 0.97 | gene expression level on custom gene array, Breast tum K ([1]; Table 19): 1.33 | gene expression level on custom gene array, Ovary nor E ([1]; Table 19): 1.18 | gene expression level on custom gene array, Ovary nor F ([1]; Table 19): 1.27 | gene expression level on custom gene array, Ovary nor G ([1]; Table 19): 0.55 | gene expression level on custom gene array, Ovary tum E ([1]; Table 19): 0.17 | gene expression level on custom gene array, Ovary tum F ([1]; Table 19): 1.47 | gene expression level on custom gene array, Ovary tum G ([1]; Table 19): 1.79

B3: p1K2 (nucleic acid, listed as Homo Sapiens)
DNA: AAGTCTCAGAGGCTGGAGAGCAGAGCACCAAGATCGTTCTGGCAGGAACAGCCAGTGGGAGGTTCCAGCTGAGCGCTCCCCAGAGGTGAGCTGATCCCCAGCCACAGCACACAGGACCAGGCTGCGAGAACAGCATCATCAGCATCATGCTATTACAATCCCAAACCATGGGGGTTTCTCACAGCTTTACACCAAAGGGCATCACTATCCCTCAAAGAGAGAAACCTGGACACATGTACCAAAACGAAGATTACCTGCAGAACGGGCTGCCAACAGAAACCACCGTTCTTGGGACAGTCCAGATCCTGTGTTGCCTGTTGATTTCAAGTCTGGGGGCCATCTTGGTTTTTGCTCCCTACCCCTCCCACTTCAATCCAGCAATTTCCACCACTTTGATGTCTGGGTACCCATTTTTAGGAGCTCTGTGTTTTGGCATTACTGGATCCCTCTCAATTATCTCTGGAAAACAATCAACTAAGCCCTTTGACCTGAGCAGCTTGACCTCAAATGCAGTGAGTTCTGTTACTGCAGGAGCAGGCCTCTTCCTCCTTGCTGACAGCATGGTAGCCCTGAGGACTGCCTCTCAACATTGTGGCTCAGAAATGGATTATCTATCCTCATTGCCTTATTCGGAGTACTATTATCCAATATATGAAATCAAAGATTGTCTCCTGACCAGTGTCAGTTTAACAGGTGTCCTAGTGGTGATGCTCATCTTCACTGTGCTGGAGCTCTTATTAGCTGCATACAGTTCTGTCTTTTGGTGGAAACAGCTCTACTCCAACAACCCTGGGAGTTCATTTTCCTCGACCCAGTCACAAGATCATATCCAACAGGTCAAAAAGAGTTCTTCACGGTCTTGGATATAAGTAACTCTTGGCCTCAGAGGAAGGAAAAGCAACTCAACACTCATGGTCAAGTGTGATTAGACTTTCCTGAAATCTCTGCCATTTTAGATACTGTGAAACAAACTAAAAAAAAAAAAGCTTTTGTTTTGTATTTGTTTACTATGAGTCGTTATTTAATTTCTCTTGAAAATAATTTCCTCAAAGCCCAAGTCAATAAA
mRNA EXPRESSION (experimental condition) #1 (human macrophages; [3]): 1.30 | mRNA EXPRESSION (experimental condition) #2 (human macrophages; [3]): 0.98 | mRNA EXPRESSION (experimental condition) #3 (human macrophages; [3]): 0.51 | mRNA EXPRESSION (experimental condition) #4 (human macrophages; [3]): 0.59 | mRNA EXPRESSION (experimental condition) #5 (human macrophages; [3]): 1.11 | mRNA EXPRESSION (experimental condition) #6 (human macrophages; [3]): 0.91 | gene expression level on custom gene array, Breast nor H ([1]; Table 19): 1.00 | gene expression level on custom gene array, Breast nor K ([1]; Table 19): 0.79 | gene expression level on custom gene array, Breast tum H ([1]; Table 19): 0.49 | gene expression level on custom gene array, Breast tum K ([1]; Table 19): 1.52 | gene expression level on custom gene array, Ovary nor E ([1]; Table 19): 0.47 | gene expression level on custom gene array, Ovary nor F ([1]; Table 19): 1.30 | gene expression level on custom gene array, Ovary nor G ([1]; Table 19): 2.32 | gene expression level on custom gene array, Ovary tum E ([1]; Table 19): 0.29 | gene expression level on custom gene array, Ovary tum F ([1]; Table 19): 1.06 | gene expression level on custom gene array, Ovary tum G ([1]; Table 19): 0.31
